Experimental data: article PMC9124786, “A One-Step Electrochemical Aptasensor Based on Signal Amplification of Metallo Nanoenzyme Particles for Vascular Endothelial Growth Factor”

Biological target: VEGF165 (VEGF A165) (UniProt P15692-4 27-191)
Test: electrochemical impedance spectroscopy (aptasensor); 10 pg/ml-1 ug/ml VEGF, 60 min; LOD 8.2 pg/ml (not a Kd); VEGF incubated 60 min (37 C in the time optimisation) on BSA-blocked aptamer/CME NP electrode, water wash; EIS in 0.1 M PBS pH 7.4 with 5 mM [Fe(CN)6]3-/4-
Details: protein: commercial; chain copies: 2; hairpin

Sequence of VEGF165 (VEGF A165) (P15692 other isoform, or with tags, fused parts or gaps): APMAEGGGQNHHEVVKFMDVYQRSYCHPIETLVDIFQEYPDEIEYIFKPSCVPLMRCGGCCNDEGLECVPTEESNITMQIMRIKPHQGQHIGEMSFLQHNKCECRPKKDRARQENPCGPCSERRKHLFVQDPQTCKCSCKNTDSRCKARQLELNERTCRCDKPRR

AAAAAAAAAACCGTCTTCCAGACAAGAGTGCAGGGAAAAAGAAGACGG (structured_DNA, 5' carboxylic acid) [VEGF aptamer with 5' A10 spacer]
binding result: binds
